Data taken from paper PMC9482650, “Quantitative fragmentomics allow affinity mapping of interactomes” (Nature Communications, 2022).

Assays:
Assay in all cases: holdup assay
Parameters in all cases: key: below the threshold = too weak to quantify, mostly under pKd 3.1 to 4
[1] = target: T1, NHERF1_1, O14745
T1 sequence (O14745 9-104, limits assumed, looked up): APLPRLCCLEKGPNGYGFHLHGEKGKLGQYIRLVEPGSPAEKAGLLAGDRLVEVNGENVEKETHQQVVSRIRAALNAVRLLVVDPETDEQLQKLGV

[2] = target: T2, USH1C_3, Q9Y6N9
T2 sequence (Q9Y6N9 447-547, limits assumed, looked up): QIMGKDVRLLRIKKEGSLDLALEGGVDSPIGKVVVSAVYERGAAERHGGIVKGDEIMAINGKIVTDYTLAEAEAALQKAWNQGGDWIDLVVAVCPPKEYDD

[3] = target: T3, MPDZ_13, O75970
T3 sequence (O75970 1982-2070, limits assumed, looked up): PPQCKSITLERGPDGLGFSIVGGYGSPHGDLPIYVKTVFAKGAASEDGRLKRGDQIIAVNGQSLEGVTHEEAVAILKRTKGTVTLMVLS

[4] = target: DLG5_2, Q8TDM6
Sequence of DLG5_2, Q8TDM6 (Q8TDM6 714-800): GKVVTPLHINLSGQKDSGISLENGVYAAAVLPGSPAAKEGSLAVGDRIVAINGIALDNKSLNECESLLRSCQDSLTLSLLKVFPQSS

[5] = target: T4, MPDZ_6, O75970
T4 sequence (O75970 1003-1099, limits assumed, looked up): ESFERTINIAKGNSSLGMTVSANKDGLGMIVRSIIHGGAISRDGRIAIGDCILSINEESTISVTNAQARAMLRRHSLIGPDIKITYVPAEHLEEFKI

[6] = target: T5, PTPN4, P29074
T5 sequence (P29074 512-599, limits assumed, looked up): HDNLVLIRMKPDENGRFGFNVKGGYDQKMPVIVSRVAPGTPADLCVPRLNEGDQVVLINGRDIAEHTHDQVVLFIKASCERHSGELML

[7] = target: T6, GRIP1_1, Q9Y3R0
T6 sequence (Q9Y3R0 48-146, limits assumed, looked up): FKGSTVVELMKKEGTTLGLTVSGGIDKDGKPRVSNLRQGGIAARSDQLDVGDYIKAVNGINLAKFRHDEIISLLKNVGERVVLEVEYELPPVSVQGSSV

[8] = target: IL16_2, Q14005
Sequence of IL16_2, Q14005 (Q14005 350-450): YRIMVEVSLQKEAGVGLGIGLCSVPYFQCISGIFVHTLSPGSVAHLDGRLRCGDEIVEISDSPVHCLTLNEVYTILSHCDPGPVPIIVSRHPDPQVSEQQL

[9] = target: T7, RGS12, O14924
T7 sequence (O14924 17-108, limits assumed, looked up): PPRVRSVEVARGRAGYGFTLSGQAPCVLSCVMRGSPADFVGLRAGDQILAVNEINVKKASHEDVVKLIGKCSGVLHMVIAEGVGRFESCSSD

[10] = target: GOPC, Q9HD26
[11] = target: T8, ARHGAP21, Q5T5U3
T8 sequence (Q5T5U3 45-169, limits assumed, looked up): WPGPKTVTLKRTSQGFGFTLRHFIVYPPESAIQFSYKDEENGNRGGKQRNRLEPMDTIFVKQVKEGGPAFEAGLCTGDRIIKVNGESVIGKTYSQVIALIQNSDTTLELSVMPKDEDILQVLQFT

[12] = target: T9, SHANK2, Q9UPX8
T9 sequence (Q9UPX8 621-730, limits assumed, looked up): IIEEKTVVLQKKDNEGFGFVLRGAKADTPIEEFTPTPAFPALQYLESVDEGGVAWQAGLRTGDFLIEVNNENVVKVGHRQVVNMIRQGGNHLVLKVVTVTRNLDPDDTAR

[13] = target: T10, DVL1, O14640
T10 sequence (O14640 246-333, limits assumed, looked up): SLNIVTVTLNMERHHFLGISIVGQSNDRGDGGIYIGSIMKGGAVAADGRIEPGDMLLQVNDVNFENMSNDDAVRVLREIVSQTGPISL

[14] = target: T11, TJP3_2, O95049
T11 sequence (O95049 190-282, limits assumed, looked up): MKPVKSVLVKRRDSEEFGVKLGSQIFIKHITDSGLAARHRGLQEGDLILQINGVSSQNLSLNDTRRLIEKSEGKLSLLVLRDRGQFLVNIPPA

[15] = target: T12, PDZD7_1, Q9H5P4
T12 sequence (Q9H5P4 81-178, limits assumed, looked up): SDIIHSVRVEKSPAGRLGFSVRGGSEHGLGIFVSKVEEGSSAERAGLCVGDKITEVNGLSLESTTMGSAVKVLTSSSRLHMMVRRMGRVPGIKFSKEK

[16] = target: MAGIX, Q9H6Y5
Sequence of MAGIX, Q9H6Y5 (Q9H6Y5 118-211): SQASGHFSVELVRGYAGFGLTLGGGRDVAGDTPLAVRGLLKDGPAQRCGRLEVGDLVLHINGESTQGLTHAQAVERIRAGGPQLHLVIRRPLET

[17] = target: T13, PARD6B, Q9BYG5
T13 sequence (Q9BYG5 152-260, limits assumed, looked up): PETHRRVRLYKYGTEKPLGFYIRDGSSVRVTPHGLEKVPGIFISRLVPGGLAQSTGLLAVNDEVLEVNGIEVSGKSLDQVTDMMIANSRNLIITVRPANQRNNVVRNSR

[18] = target: T14, MLLT4, P55196
T14 sequence (P55196 1002-1103, limits assumed, looked up): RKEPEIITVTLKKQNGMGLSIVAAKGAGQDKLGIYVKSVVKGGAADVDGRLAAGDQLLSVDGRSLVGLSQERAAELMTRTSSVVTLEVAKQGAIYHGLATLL

[19] = target: MAGI3_5, Q5TCQ9
Sequence of MAGI3_5, Q5TCQ9 (Q5TCQ9 847-941): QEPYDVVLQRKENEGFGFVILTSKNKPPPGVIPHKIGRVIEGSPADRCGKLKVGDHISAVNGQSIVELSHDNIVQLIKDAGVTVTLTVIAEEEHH

[20] = target: PDZD9, Q8IXQ8
Sequence of PDZD9, Q8IXQ8 (Q8IXQ8 23-120): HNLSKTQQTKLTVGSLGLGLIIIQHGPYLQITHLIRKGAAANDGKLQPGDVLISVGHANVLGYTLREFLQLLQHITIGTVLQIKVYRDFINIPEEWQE

[21] = target: T15, SIPA1L3, O60292
T15 sequence (O60292 961-1052, limits assumed, looked up): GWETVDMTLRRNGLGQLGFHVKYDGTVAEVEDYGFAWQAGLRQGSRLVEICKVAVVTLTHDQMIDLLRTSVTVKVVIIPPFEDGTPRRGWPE

[22] = target: MAGI1_4, Q96QZ7
Sequence of MAGI1_4, Q96QZ7 (Q96QZ7 other isoform, or with tags, fused parts or gaps): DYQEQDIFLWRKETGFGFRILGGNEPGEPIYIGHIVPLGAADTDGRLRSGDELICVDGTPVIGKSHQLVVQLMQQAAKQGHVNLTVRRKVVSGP

[23] = plain residues with an end cap or a label only (N-terminal biotin on a linker: ttds)
[24] = plain residues with an end cap or a label only (N-terminal biotin on a linker: none)

RPLPRKVSQL [DOCK4, Q8N1I0]
pKd [1, 23]: below the threshold | pKd [2, 23]: below the threshold | pKd [3, 23]: below the threshold | pKd [4, 23]: below the threshold | pKd [5, 23]: below the threshold | pKd [6, 23]: below the threshold | pKd [7, 23]: 4.15 | pKd [8, 23]: below the threshold | pKd [9, 23]: below the threshold | pKd [10, 23]: 4.03 | pKd [11, 23]: below the threshold | pKd [12, 23]: below the threshold | pKd [13, 23]: below the threshold | pKd [14, 23]: below the threshold | pKd [15, 23]: 4.33 | pKd [16, 23]: below the threshold | pKd [17, 23]: below the threshold | pKd [18, 23]: below the threshold | pKd [19, 23]: below the threshold | pKd [20, 23]: below the threshold | pKd [21, 23]: below the threshold | pKd [22, 23]: below the threshold

RLPKIKETTV [FRMPD4, Q14CM0]
pKd [1, 23]: below the threshold | pKd [2, 23]: below the threshold | pKd [3, 23]: below the threshold | pKd [4, 23]: 4.7 | pKd [5, 23]: below the threshold | pKd [6, 23]: 5.14 | pKd [7, 23]: below the threshold | pKd [8, 23]: below the threshold | pKd [9, 23]: 4.61 | pKd [10, 23]: 3.83 | pKd [11, 23]: below the threshold | pKd [12, 23]: below the threshold | pKd [13, 23]: 4.63 | pKd [14, 23]: below the threshold | pKd [15, 23]: below the threshold | pKd [16, 23]: below the threshold | pKd [17, 23]: below the threshold | pKd [18, 23]: below the threshold | pKd [19, 23]: below the threshold | pKd [20, 23]: below the threshold | pKd [21, 23]: below the threshold | pKd [22, 23]: below the threshold

NLNSSRVPDLLV [SARS-CoV2-E, P0DTC4]
pKd [1, 24]: below the threshold | pKd [2, 24]: below the threshold | pKd [3, 24]: below the threshold | pKd [4, 24]: below the threshold | pKd [5, 24]: below the threshold | pKd [6, 24]: below the threshold | pKd [7, 24]: below the threshold | pKd [8, 24]: below the threshold | pKd [9, 24]: below the threshold | pKd [10, 24]: below the threshold | pKd [11, 24]: below the threshold | pKd [12, 24]: below the threshold | pKd [13, 24]: below the threshold | pKd [14, 24]: below the threshold | pKd [15, 24]: below the threshold | pKd [16, 24]: below the threshold | pKd [17, 24]: below the threshold | pKd [18, 24]: 4.1 | pKd [19, 24]: below the threshold | pKd [20, 24]: 3.94 | pKd [21, 24]: below the threshold | pKd [22, 24]: 3.75
